Test results as given in publication PMC12418388, “DDX6 interacts with DDX3X to repress translation in microRNA-mediated silencing” (Nucleic Acids Research, 2025).

Target: T1, GST-DDX6 (wild type), recombinant (UniProt P54823 1-483)
T1 construct: DDX6 (DEAD-box helicase 6); Cloned in pGEX-KG; also called wild-type DDX6; source: E. coli BL21(DE3), purified (Glutathione Sepharose 4B)
T1 sequence (looked up): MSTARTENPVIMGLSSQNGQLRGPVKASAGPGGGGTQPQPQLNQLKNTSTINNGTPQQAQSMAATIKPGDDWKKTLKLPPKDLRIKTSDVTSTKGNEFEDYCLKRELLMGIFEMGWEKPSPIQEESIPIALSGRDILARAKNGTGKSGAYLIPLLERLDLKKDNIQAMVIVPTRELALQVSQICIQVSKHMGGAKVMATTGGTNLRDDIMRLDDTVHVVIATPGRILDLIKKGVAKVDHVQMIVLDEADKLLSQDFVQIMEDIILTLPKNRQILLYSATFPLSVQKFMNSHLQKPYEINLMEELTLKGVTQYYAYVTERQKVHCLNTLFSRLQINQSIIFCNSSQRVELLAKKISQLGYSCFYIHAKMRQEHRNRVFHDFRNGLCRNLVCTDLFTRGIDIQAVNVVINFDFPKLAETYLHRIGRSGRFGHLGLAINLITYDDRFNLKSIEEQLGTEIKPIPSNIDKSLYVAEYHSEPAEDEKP
Test: BLI; BLItz; 6xHis-MBP-DDX3X^166-590 loaded on Ni-NTA biosensors; GST-DDX6 or GST-DDX6^Mut6 at 125, 250 and 500 nM; 20 mM Tris-HCl pH 8.0, 150 mM KCl, 0.02% Tween 20, DTT, 1 mg/ml BSA; global fit to a 1:1 model
Details: both partners purified

- Kd: 389 nM
B1: 6xHis-MBP-DDX3X^166-590 (domain or fragment, UniProt Q62167 166-590, looked up)
chain: IPVEATGNNCPPHIESFSDVEMGEIIMGNIELTRYTRPTPVQKHAIPIIKEKRDLMACAQTGSGKTAAFLLPILSQIYADGPGEALRAMKENGRYGRRKQYPISLVLAPTRELAVQIYEEARKFSYRSRVRPCVVYGGAEIGQQIRDLERGCHLLVATPGRLVDMMERGKIGLDFCKYLVLDEADRMLDMGFEPQIRRIVEQDTMPPKGVRHTMMFSATFPKEIQMLARDFLDEYIFLAVGRVGSTSENITQKVVWVEEIDKRSFLLDLLNATGKDSLTLVFVETKKGADSLEDFLYHEGYACTSIHGDRSQRDREEALHQFRSGKSPILVATAVAARGLDISNVKHVINFDLPSDIEEYVHRIGRTGRVGNLGLATSFFNERNINITKDLLDLLVEAKQEVPSWLENMAFEHHYKGSSRGRSKS
notes: Cloned in pMCSG9; source: E. coli BL21(DE3), purified (Ni-NTA)
